The values below come from PMC9964254, “Caspase Inhibition Modulates Monocyte-Derived Macrophage Polarization in Damaged Tissues” (International Journal of Molecular Sciences, 2023).

This assay has as its target T1, p47^PHOX (83-390) (UniProt P14598 83-390).
T1 construct: p47^PHOX residues 83-390 (the first 82 amino acids deleted from the GST-p47^PHOX construct); Made from the GST-p47^PHOX construct (pGEX-6P-3); also called truncated p47^PHOX; p47^PHOX truncated at position 82; source: E. coli (BL21), purified with glutathione sepharose beads
T1 sequence (looked up): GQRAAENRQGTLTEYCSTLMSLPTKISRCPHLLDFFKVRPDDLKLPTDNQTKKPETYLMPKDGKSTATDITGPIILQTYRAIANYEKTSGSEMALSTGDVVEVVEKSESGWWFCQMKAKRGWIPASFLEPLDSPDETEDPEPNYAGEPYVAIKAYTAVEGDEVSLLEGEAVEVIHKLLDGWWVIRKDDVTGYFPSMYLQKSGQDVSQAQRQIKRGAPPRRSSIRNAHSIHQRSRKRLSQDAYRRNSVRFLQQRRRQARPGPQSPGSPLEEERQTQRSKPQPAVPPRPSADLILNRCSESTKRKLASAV
In words: pull-down; 214 nM p47^PHOX proteins with 286 nM GST or GST-p22^PHOX (132-195), 30 min at 4 °C in PBS pH 7.4, 0.1% Triton X-100; glutathione sepharose beads 1 h at 4 °C, eluted with 10 mM glutathione, immunoblot with anti-p47^PHOX. The conditions noted are these: both partners purified. A general note: Immunoblotting shows a protein as a band on a membrane.

B1: GST-p22^PHOX (132-195) (domain or fragment, UniProt P13498 132-195, looked up)
chain: TPIEPKPRERPQIGGTIKQPPSNPPPRPPAEARKKPSEEEAAVAAGGPPGGPQVNPIPVTDEVV
notes: p22^PHOX residues 132-195
On to B1, for which the binding result was “binds”.
